Measurements from patent US20090022728A1 (RINAT NEUROSCIENCE, published 2009).

Key:
[1] = target: T1, biotinylated Aβ1-40 peptide (biotinylated (N-biotinylated in Example 7)); experiment: SPR, Fab over Aβ1-40 on SA chip
T1 construct: captured on streptavidin (SA) chip; also called Biotinylated Aβ peptide 1-40; Aβ1-40 on SA chip
Procedure: (§1) Affinities of 9TL Fab fragment and its variants Fab fragments were determined by Surface Plasmon Resonance (SPR) system (BIAcore 3000™, BIAcore, Inc., Piscaway, N.J.). SA chips (streptavidin) were used according to the supplier's instructions. Biotinylated Aβ peptide 1-40 was diluted into HBS-EP (10 mM HEPES pH 7.4, 150 mM NaCl, 3 mM EDTA, 0.005% P20) and injected over the chip at a concentration of 0.005 mg/mL. Using variable flow time across the individual chip channels, two ranges of antigen density were achieved: 10-200 response units (RU) for detailed kinetic studies and 500-600 RU for concentration studies and screening. […] HBS-EP buffer was used as running buffer for all the BIAcore assays. […] The concentrations of the Fab proteins were determined by ELISA and/or SDS-PAGE electrophoresis using a standard Fab of known concentration (determined by amino acid analysis). Kinetic association rates (kₒₙ) and dissociation rates (koff) were obtained simultaneously by fitting the data to a 1:1 Langmuir binding model (Karlsson, R. Roos, H. Fagerstam, L. Petersson, B. (1994). Methods Enzymology 6. 99-110) using the BIAevaluation program. Equilibrium dissociation constant (KD) values were calculated as koff/kₒₙ.
(§2) All amino acid substitutions of the variants shown in Table 3 are described relative to the sequence of 9TL. KD and other kinetic parameters were determined by BIAcore analysis described above with Aβ₁₋₄₀ immobilized on SA chip.

[2] = target: T1, biotinylated Aβ1-40 peptide; experiment: SPR, Fab over Aβ1-40 on SA chip; KD=koff/kon
Procedure: as §1, §2

[3] = target: T1, biotinylated Aβ1-40 peptide; experiment: SPR, Fab over Aβ1-40 on SA chip; kon may be assumed = 9TL (footnote 2)
Procedure: as §1, §2

T1 sequence (peptide, as listed by the source): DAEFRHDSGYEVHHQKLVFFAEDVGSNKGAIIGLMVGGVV

Binder | koff [1] | Kd [2] | kon [3]
9TL variant M24 Fab (Fab, V domains shown, Fab; human IgG2 CH1 and kappa CL) VH: QVQLVQSGAEVKKPGASVKVSCKASGYYTEAYYIHWVRQAPGQGLEWMGRIDPATGNTKYAPRLQDRVTMTRDTSTSTVYMELSSLRSEDTAVYYCASLYSLPVYWGQGTTVTVSS VL: DVVMTQSPLSLPVTLGQPASISCKSSQSLLYSDAKTYLNWFQQRPGQSPRRLIYQISRLDPGVPDRFSGSGSGTDFTLKISRVEAEDVGVYYCLQGTHYPHLFGQGTRLEIKR | 0.006 s⁻¹ | 18.9 nM | 318000 M⁻¹ s⁻¹
9TL variant M35 Fab (Fab, V domains shown, Fab; human IgG2 CH1 and kappa CL) VH: QVQLVQSGAEVKKPGASVKVSCKASGYYTEAYYIHWVRQAPGQGLEWMGRIDPATGNTKYAPRLQDRVTMTRDTSTSTVYMELSSLRSEDTAVYYCASLYGLPVYWGQGTTVTVSS VL: DVVMTQSPLSLPVTLGQPASISCKSSQSLLYSDAKTYLNWFQQRPGQSPRRLIYQISRLDPGVPDRFSGSGSGTDFTLKISRVEAEDVGVYYCLQGTHYPVLFGQGTRLEIKR | 0.009 s⁻¹ | 28.3 nM | 318000 M⁻¹ s⁻¹
9TL variant M25 Fab (Fab, V domains shown, Fab; human IgG2 CH1 and kappa CL) VH: QVQLVQSGAEVKKPGASVKVSCKASGYYTEAYYIHWVRQAPGQGLEWMGRIDPATGNTKYAPRLQDRVTMTRDTSTSTVYMELSSLRSEDTAVYYCASLYSLPVYWGQGTTVTVSS VL: DVVMTQSPLSLPVTLGQPASISCKSSQSLLYSDAKTYLNWFQQRPGQSPRRLIYQISRLDPGVPDRFSGSGSGTDFTLKISRVEAEDVGVYYCLQGTHYPTLFGQGTRLEIKR | 0.008 s⁻¹ | 25.2 nM | 318000 M⁻¹ s⁻¹
9TL variant M27 Fab (Fab, V domains shown, Fab; human IgG2 CH1 and kappa CL) VH: QVQLVQSGAEVKKPGASVKVSCKASGYYTEAYYIHWVRQAPGQGLEWMGRIDPATGNTKYAPRLQDRVTMTRDTSTSTVYMELSSLRSEDTAVYYCASLYSLPVYWGQGTTVTVSS VL: DVVMTQSPLSLPVTLGQPASISCKSSQSLLYSDAKTYLNWFQQRPGQSPRRLIYQISRLDPGVPDRFSGSGSGTDFTLKISRVEAEDVGVYYCLQGTHYPELFGQGTRLEIKR | 0.012 s⁻¹ | 37.7 nM | 318000 M⁻¹ s⁻¹
9TL variant M26 Fab (Fab, V domains shown, Fab; human IgG2 CH1 and kappa CL) VH: QVQLVQSGAEVKKPGASVKVSCKASGYYTEAYYIHWVRQAPGQGLEWMGRIDPATGNTKYAPRLQDRVTMTRDTSTSTVYMELSSLRSEDTAVYYCASLYSLPVYWGQGTTVTVSS VL: DVVMTQSPLSLPVTLGQPASISCKSSQSLLYSDAKTYLNWFQQRPGQSPRRLIYQISRLDPGVPDRFSGSGSGTDFTLKISRVEAEDVGVYYCLQGTHYPALFGQGTRLEIKR | 0.009 s⁻¹ | 28.3 nM | 318000 M⁻¹ s⁻¹
9TL variant M31 Fab (Fab, V domains shown, Fab; human IgG2 CH1 and kappa CL) VH: QVQLVQSGAEVKKPGASVKVSCKASGYYTEAYYIHWVRQAPGQGLEWMGRIDPATGNTKYAPRLQDRVTMTRDTSTSTVYMELSSLRSEDTAVYYCASVYSLPVYWGQGTTVTVSS VL: DVVMTQSPLSLPVTLGQPASISCKSSQSLLYSDAKTYLNWFQQRPGQSPRRLIYQISRLDPGVPDRFSGSGSGTDFTLKISRVEAEDVGVYYCLQGTHYPVLFGQGTRLEIKR | 0.01 s⁻¹ | 31.4 nM | 318000 M⁻¹ s⁻¹
9TL variant M28 Fab (Fab, V domains shown, Fab; human IgG2 CH1 and kappa CL) VH: QVQLVQSGAEVKKPGASVKVSCKASGYYTEAYYIHWVRQAPGQGLEWMGRIDPATGNTKYAPRLQDRVTMTRDTSTSTVYMELSSLRSEDTAVYYCASLYSLPVYWGQGTTVTVSS VL: DVVMTQSPLSLPVTLGQPASISCKSSQSLLYSDAKTYLNWFQQRPGQSPRRLIYQISRLDPGVPDRFSGSGSGTDFTLKISRVEAEDVGVYYCLQGTHYPMLFGQGTRLEIKR | 0.014 s⁻¹ | 44 nM | 318000 M⁻¹ s⁻¹
9TL variant M32 Fab (Fab, V domains shown, Fab; human IgG2 CH1 and kappa CL) VH: QVQLVQSGAEVKKPGASVKVSCKASGYYTEAYYIHWVRQAPGQGLEWMGRIDPATGNTKYAPRLQDRVTMTRDTSTSTVYMELSSLRSEDTAVYYCASIYSLPVYWGQGTTVTVSS VL: DVVMTQSPLSLPVTLGQPASISCKSSQSLLYSDAKTYLNWFQQRPGQSPRRLIYQISRLDPGVPDRFSGSGSGTDFTLKISRVEAEDVGVYYCLQGTHYPVLFGQGTRLEIKR | 0.02 s⁻¹ | 62.9 nM | 318000 M⁻¹ s⁻¹

Binders with a lower Kd [2], results first:

koff [1] | Kd [2] | kon [3] | Binder
0.005 s⁻¹ | 15.7 nM | 318000 M⁻¹ s⁻¹ | 9TL variant M23 Fab (Fab, V domains shown, Fab; human IgG2 CH1 and kappa CL) VH: QVQLVQSGAEVKKPGASVKVSCKASGYYTEAYYIHWVRQAPGQGLEWMGRIDPATGNTKYAPRLQDRVTMTRDTSTSTVYMELSSLRSEDTAVYYCASLYSLPVYWGQGTTVTVSS VL: DVVMTQSPLSLPVTLGQPASISCKSSQSLLYSDAKTYLNWFQQRPGQSPRRLIYQISRLDPGVPDRFSGSGSGTDFTLKISRVEAEDVGVYYCLQGTHYPKLFGQGTRLEIKR
0.005 s⁻¹ | 15.7 nM | 318000 M⁻¹ s⁻¹ | 9TL variant M21 Fab (Fab, V domains shown, Fab; human IgG2 CH1 and kappa CL) VH: QVQLVQSGAEVKKPGASVKVSCKASGYYTEAYYIHWVRQAPGQGLEWMGRIDPATGNTKYAPRLQDRVTMTRDTSTSTVYMELSSLRSEDTAVYYCASLYSLPVYWGQGTTVTVSS VL: DVVMTQSPLSLPVTLGQPASISCKSSQSLLYSDAKTYLNWFQQRPGQSPRRLIYQISRLDPGVPDRFSGSGSGTDFTLKISRVEAEDVGVYYCLQGTHEPVLFGQGTRLEIKR
0.004 s⁻¹ | 12.6 nM | 318000 M⁻¹ s⁻¹ | 9TL variant M22 Fab (Fab, V domains shown, Fab; human IgG2 CH1 and kappa CL) VH: QVQLVQSGAEVKKPGASVKVSCKASGYYTEAYYIHWVRQAPGQGLEWMGRIDPATGNTKYAPRLQDRVTMTRDTSTSTVYMELSSLRSEDTAVYYCASLYSLPVYWGQGTTVTVSS VL: DVVMTQSPLSLPVTLGQPASISCKSSQSLLYSDAKTYLNWFQQRPGQSPRRLIYQISRLDPGVPDRFSGSGSGTDFTLKISRVEAEDVGVYYCLQGTHYPLLFGQGTRLEIKR
0.002 s⁻¹ | 6.29 nM | 318000 M⁻¹ s⁻¹ | 9TL variant M20 Fab (Fab, V domains shown, Fab; human IgG2 CH1 and kappa CL) VH: QVQLVQSGAEVKKPGASVKVSCKASGYYTEAYYIHWVRQAPGQGLEWMGRIDPATGNTKYAPRLQDRVTMTRDTSTSTVYMELSSLRSEDTAVYYCASLYSLPVYWGQGTTVTVSS VL: DVVMTQSPLSLPVTLGQPASISCKSSQSLLYSDAKTYLNWFQQRPGQSPRRLIYQISRLDPGVPDRFSGSGSGTDFTLKISRVEAEDVGVYYCLQGTHSPVLFGQGTRLEIKR
0.0017 s⁻¹ | 5.35 nM | 318000 M⁻¹ s⁻¹ | 9TL variant M19 Fab (Fab, V domains shown, Fab; human IgG2 CH1 and kappa CL) VH: QVQLVQSGAEVKKPGASVKVSCKASGYYTEAYYIHWVRQAPGQGLEWMGRIDPATGNTKYAPRLQDRVTMTRDTSTSTVYMELSSLRSEDTAVYYCASLYSLPVYWGQGTTVTVSS VL: DVVMTQSPLSLPVTLGQPASISCKSSQSLLYSDAKTYLNWFQQRPGQSPRRLIYQISRLDPGVPDRFSGSGSGTDFTLKISRVEAEDVGVYYCLQGTHMPVLFGQGTRLEIKR
0.0015 s⁻¹ | 4.72 nM | 318000 M⁻¹ s⁻¹ | 9TL variant M18 Fab (Fab, V domains shown, Fab; human IgG2 CH1 and kappa CL) VH: QVQLVQSGAEVKKPGASVKVSCKASGYYTEAYYIHWVRQAPGQGLEWMGRIDPATGNTKYAPRLQDRVTMTRDTSTSTVYMELSSLRSEDTAVYYCASLYSLPVYWGQGTTVTVSS VL: DVVMTQSPLSLPVTLGQPASISCKSSQSLLYSDAKTYLNWFQQRPGQSPRRLIYQISRLDPGVPDRFSGSGSGTDFTLKISRVEAEDVGVYYCLQGTHQPVLFGQGTRLEIKR
0.001 s⁻¹ | 3.14 nM | 318000 M⁻¹ s⁻¹ | 9TL variant M17 Fab (Fab, V domains shown, Fab; human IgG2 CH1 and kappa CL) VH: QVQLVQSGAEVKKPGASVKVSCKASGYYTEAYYIHWVRQAPGQGLEWMGRIDPATGNTKYAPRLQDRVTMTRDTSTSTVYMELSSLRSEDTAVYYCASLYSLPVYWGQGTTVTVSS VL: DVVMTQSPLSLPVTLGQPASISCKSSQSLLYSDAKTYLNWFQQRPGQSPRRLIYQISRLDPGVPDRFSGSGSGTDFTLKISRVEAEDVGVYYCLQGTHWPVLFGQGTRLEIKR
0.00076 s⁻¹ | 2.39 nM | 318000 M⁻¹ s⁻¹ | 9TL variant M29 Fab (Fab, V domains shown, Fab; human IgG2 CH1 and kappa CL) VH: QVQLVQSGAEVKKPGASVKVSCKASGYYTEAYYIHWVRQAPGQGLEWMGRIDPATGNTKYAPRLQDRVTMTRDTSTSTVYMELSSLRSEDTAVYYCASLYSLPVYWGQGTTVTVSS VL: DVVMTQSPLSLPVTLGQPASISCKSSQSLLYSDAKTYLNWFQQRPGQSPRRLIYQISRLDPGVPDRFSGSGSGTDFTLKISRVEAEDVGVYYCLQGTHYPVSFGQGTRLEIKR
0.00068 s⁻¹ | 2.14 nM | 318000 M⁻¹ s⁻¹ | 9TL variant M30 Fab (Fab, V domains shown, Fab; human IgG2 CH1 and kappa CL) VH: QVQLVQSGAEVKKPGASVKVSCKASGYYTEAYYIHWVRQAPGQGLEWMGRIDPATGNTKYAPRLQDRVTMTRDTSTSTVYMELSSLRSEDTAVYYCASLYSLPVYWGQGTTVTVSS VL: DVVMTQSPLSLPVTLGQPASISCKSSQSLLYSDAKTYLNWFQQRPGQSPRRLIYQISRLDPGVPDRFSGSGSGTDFTLKISRVEAEDVGVYYCLQGTHYPVVFGQGTRLEIKR
